Results published in patent US20220251562.

What was measured:
[1] = biological target: CD3 epsilon/delta heterodimer (Homo sapiens) (UniProt P07766+P04234); test: SPR; conditions: kinetic
[2] = biological target: CD3 epsilon/gamma heterodimer (Homo sapiens) (UniProt P07766+P09693); test: SPR; conditions: steady state
[3] = test system: CD3 complex on Jurkat cells (Homo sapiens); test: flow; conditions: apparent
[4] = biological target: CD3 epsilon/delta heterodimer (Macaca fascicularis) (UniProt Q95LI5+Q95LI8); test: SPR; conditions: steady state
[5] = biological target: T1, CD3 epsilon/delta heterodimer (Mus musculus) (UniProt P22646+P04235); test: SPR; conditions: steady state
T1 sequence 1: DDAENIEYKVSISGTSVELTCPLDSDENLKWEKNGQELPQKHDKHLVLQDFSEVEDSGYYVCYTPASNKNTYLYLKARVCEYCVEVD
T1 sequence 2: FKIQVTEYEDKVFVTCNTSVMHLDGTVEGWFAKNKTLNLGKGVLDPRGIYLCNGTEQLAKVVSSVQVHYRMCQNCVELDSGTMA

Chain of CD3 epsilon/delta heterodimer (Homo sapiens) (P07766 23-126, stated change not applied, chain 1 of 2): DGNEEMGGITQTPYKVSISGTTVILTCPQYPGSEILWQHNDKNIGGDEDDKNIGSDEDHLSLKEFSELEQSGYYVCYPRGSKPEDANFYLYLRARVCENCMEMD
Chain of CD3 epsilon/delta heterodimer (Homo sapiens) (P04234 22-105, stated change not applied, chain 2 of 2): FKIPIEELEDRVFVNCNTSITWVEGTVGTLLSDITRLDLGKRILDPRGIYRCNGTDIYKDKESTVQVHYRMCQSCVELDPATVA
Chain of CD3 epsilon/gamma heterodimer (Homo sapiens) (P07766 23-126, chain 1 of 2): as the sequence (P07766 23-126, stated change not applied, chain 1 of 2) above
Chain of CD3 epsilon/gamma heterodimer (Homo sapiens) (P09693 23-116, chain 2 of 2): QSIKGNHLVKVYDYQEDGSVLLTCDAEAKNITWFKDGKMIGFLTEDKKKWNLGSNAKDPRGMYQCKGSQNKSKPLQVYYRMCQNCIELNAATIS
Chain of CD3 epsilon/delta heterodimer (Macaca fascicularis) (Q95LI5 22-117, stated change not applied, chain 1 of 2): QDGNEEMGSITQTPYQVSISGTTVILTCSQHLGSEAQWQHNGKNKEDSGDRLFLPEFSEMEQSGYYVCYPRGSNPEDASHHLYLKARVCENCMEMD
Chain of CD3 epsilon/delta heterodimer (Macaca fascicularis) (Q95LI8 22-105, stated change not applied, chain 2 of 2): as the sequence (P04234 22-105, stated change not applied, chain 2 of 2) above, with I5V, N15K, I20V, S32T, D33N, I34N, T64A, S74N, V83L counted along it

In the case of GGGTTTGGCACGGGCTGGC [CELTIC_core_42], the Kd ([1]; _ is abasic C3 spacer at positions 11 and 16, 5'-HEG) is reported as 0.772 nM, the Kd ([2]; _ is abasic C3 spacer at positions 11 and 16, 5'-HEG, kinetic 277 pM (Table 8)) is reported as 194 nM and the Kd ([3]; _ is abasic C3 spacer (positions 11 and 16), 5'-HEG, biotin at 5' or 3' end equivalent) is reported as under 50 nM.
In the case of GGGTTTGGCACGGGCCTGGC [CELTIC_core_24], the Kd ([1]; _ is abasic C3 spacer at position 11, 5'-HEG) is reported as 0.041 nM and the Kd ([2]; _ is abasic C3 spacer at position 11, 5'-HEG, kinetic 67 pM (Table 8)) is reported as 218 nM.
GGGTTTGGCACCGGGCTGGC [CELTIC_core_12] gave a Kd ([1]; _ is abasic C3 spacer at position 16) of 1.5 nM and a Kd ([2]; _ is abasic C3 spacer at position 16, kinetic 1.15 pM (Table 8)) of 98 nM.
GGGTTTGGCACGGGCTGGC [CELTIC_core_42t] gave a Kd ([1]; _ is abasic C3 spacer at positions 11 and 16, 5'-HEG, 3'-3' dT) of 0.275 nM and a Kd ([2]; _ is abasic C3 spacer at positions 11 and 16, 5'-HEG, 3'-3' dT, kinetic 43 pM (Table 8)) of 176 nM.
For GGGNTTGGCNNNGGGNCTGGC [CELTIC_core], the Kd [1] was 1 nM, the Kd [4] was 1210 nM and the Kd [5] was 591000 nM. The Kd ([2]; kinetic 845 pM (Table 8)) was 427 nM and the Kd ([3]; negligible signal on Ramos) was over 50 nM.
“GGGTTTGGCACGGGCTGGC [CELTIC_core_42 5'-tetrazine]” showed a Kd ([3]; _ is abasic C3 spacer (positions 11 and 16), HEG, 5'-tetrazine-PEG5, specificity retained vs Ramos) of under 25 nM.
With GGGTTTGGCACGGGCCTGGC [CELTIC_core_24t] the Kd ([1]; _ is abasic C3 spacer at position 11, 5'-HEG, 3'-3' dT) was 0.006 nM and the Kd ([2]; _ is abasic C3 spacer at position 11, 5'-HEG, 3'-3' dT, kinetic 238 pM (Table 8)) was 233 nM.
GGGTTTGGCATCGGGCTGGC [CELTIC_core_29] gave a Kd ([1]; _ is abasic C3 spacer at position 16, 5'-HEG) of 0.014 nM and a Kd ([2]; _ is abasic C3 spacer at position 16, 5'-HEG, kinetic 5.4 pM (Table 8)) of 205 nM.
